This series in a line: protein stability index of a GFP-peptide fusion (GPS, HEK-293T) (PSI 1-6); higher = more stable.
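Further: lentivirally expressed fusions sorted by FACS into six bins by GFP to DsRed ratio, PSI derived from sequencing read proportions per bin multiplied by bin number.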

Take NQEITKAFHVRRTNRVKECLAKGT: the protein stability index (parent: IOH23244_80, c terminus: a fixed tail appended) turned out to be 3.11.
For LRGGGQVLLGWTLHYFPFFLMGRV, under “parent: IOH22744_107, c terminus: a fixed tail appended”, the protein stability index was determined as 2.33.
For the protein VLRSRIRFIHLVTGCVLGSSGKVL, the protein stability index (parent: IOH22744_79, c terminus: a fixed tail appended) is 2.76.
As for STTEGIQLAKELGATYLELHSLDD, the protein stability index (parent: IOH25836_27, c terminus: a fixed tail appended) is 3.48.
PSRVHASEVESAVWYVKKFGRYLE: the protein stability index (parent: IOH22759_12, c terminus: a fixed tail appended) came out at 2.26.
As for EEINKNISDFGRQQLLPPFPSLHQ, the protein stability index (parent: IOH26527_40, c terminus: a fixed tail appended) stood at 2.94.
With FHKDCASRVNNASYCPHCGEESSK, the protein stability index (parent: IOH26527_103, c terminus: a fixed tail appended) was found to be 3.47.
With AQVLMLGQILELPWKEETFLVLQS [FANCE WT], for the setting “parent: IOH26415_73, c terminus: a fixed tail appended”, the protein stability index was found to be 2.44.
With QYLAERYKVNTPMLQSFINYCLLF, the protein stability index (parent: IOH25755_11, c terminus: a fixed tail appended) worked out at 2.35.
Take GEGTGSPPKWQIGEQEFEALMRML: the protein stability index (parent: IOH25868_61, c terminus: a fixed tail appended) was determined as 3.11.
As for LSQMGAQSSGKILLCPLCQEEEQA, under “parent: IOH26053_8, c terminus: a fixed tail appended”, the protein stability index worked out at 3.51.
For KTSLLDQLTNTSGTVIGVTSCIVI, the protein stability index (parent: IOH26431_56, c terminus: a fixed tail appended) stood at 3.09.
For the protein EVLRRLTSSVSCALDEAAAALTRM, the protein stability index (parent: IOH26350_34, c terminus: a fixed tail appended) was 1.95.
For the protein SSKEEQKLIATSNKPAVKLLYNRS [KCTD10 WT], the protein stability index (parent: IOH25947_25, c terminus: a fixed tail appended) stood at 4.05.
For LARKGSLKNGSMGSPVNQQPKKNN [C9orf25 WT], the protein stability index (parent: IOH25834_6, c terminus: a fixed tail appended) was 4.65.
For VRSRLEEAGIKVHDVRLNGSAAGH, the protein stability index (parent: IOH22484_10, c terminus: a fixed tail appended) worked out at 2.22.
As to VKYNSCADRPFSAPWWFWLSLTGV, the protein stability index (parent: IOH22744_36, c terminus: a fixed tail appended) came out at 2.7.
As for EMVRFLLEAGADQEHKTDEMHTAL, the protein stability index (parent: IOH26350_70, c terminus: a fixed tail appended) was found to be 2.65.
In the case of QSSGKILLCPLCQEEEQAETPMAP, for the setting “parent: IOH26053_9, c terminus: a fixed tail appended”, the protein stability index is 3.3.
Take SFMPLVIKVTSATSVNLGILTADL: the protein stability index (parent: IOH25755_47, c terminus: a fixed tail appended) turned out to be 2.79.
As to LYTGELDENERDLMHIAHIAELLE, the protein stability index (parent: IOH23244_73, c terminus: a fixed tail appended) is 2.54.
For DKLALCHLELTRKLQDLIKDVLRY, the protein stability index (parent: IOH26137_14, c terminus: a fixed tail appended) was 2.73.
Regarding FVAFALCMFCLYSFMPLVIKVTSA, the protein stability index (parent: IOH25755_45, c terminus: a fixed tail appended) was found to be 2.87.
With LRHSFQKQQREKTRWLNSGRGDEA, for the setting “parent: IOH25868_73, c terminus: a fixed tail appended”, the protein stability index was determined as 3.66.
In the case of RVFKARIYTNRYETNEEDKTLQEI, where the note is “parent: IOH22759_67, c terminus: a fixed tail appended”, the protein stability index was found to be 2.51.
In the case of SARQGELQKVLLMLVDGIDPNFKM, the protein stability index (parent: IOH26527_125, c terminus: a fixed tail appended) is 1.73.
As to VSHVFMLLFNVKSPTDIQDSSIIR, the protein stability index (parent: IOH25836_47, c terminus: a fixed tail appended) was determined as 2.27.
Consider KKLKIFAMPMQDIKMILKMVQLDS [PRAME WT], for which the protein stability index (parent: IOH26126_36, c terminus: a fixed tail appended) stood at 2.56.
HLELTRKLQDLIKDVLRYGEEQLK: where the note is “parent: IOH26137_15, c terminus: a fixed tail appended”, the protein stability index turned out to be 2.46.
Regarding FSDPSQSDPETKDFWLNMAALTEA, for the setting “parent: IOH26137_117, c terminus: a fixed tail appended”, the protein stability index was 2.84.
As for FTSSPSPFSSSSPENVEDSGLDSP, the protein stability index (parent: IOH26137_77, c terminus: a fixed tail appended) is 1.88.
Regarding YSSSKGSLRLCDMRAAALCDKHSK [PPP2R2C WT], the protein stability index (parent: IOH22415_38, c terminus: a fixed tail appended) came to 1.74.
As to GFSPIIGRFCGQQNPPVIKSSGRF, the protein stability index (parent: IOH26431_19, c terminus: a fixed tail appended) stood at 2.17.
KVVEAHKIVLCAVSHVFMLLFNVK: the protein stability index (parent: IOH25836_45, c terminus: a fixed tail appended) was determined as 2.49.
As for LTHFSRRYCQCNPDDSTSEDGIHT, the protein stability index (parent: IOH26041_65, c terminus: a fixed tail appended) was found to be 3.23.
Turning to FDHLQNRLIATKNPEEIRGGGLLK, the protein stability index (parent: IOH22484_38, c terminus: a fixed tail appended) is 3.8.
As to PSLLELAWEKLLAAFPNLANLSRT, the protein stability index (parent: IOH26494_68, c terminus: a fixed tail appended) worked out at 2.3.
Regarding YHEAPMTRKHYQVTGYGINGTGDS, for the setting “parent: IOH22744_72, c terminus: a fixed tail appended”, the protein stability index came to 2.29.
For the protein QLQSMPSRELASMNLDIVDLLKKA, for the setting “parent: IOH25836_87, c terminus: a fixed tail appended”, the protein stability index was 3.28.
VTEDLRLKDWEHSIALRNISLAKG [SCARA5 WT]: the protein stability index (parent: IOH23227_48, c terminus: a fixed tail appended) was determined as 3.31.
As for HHHHGRDFLLRAASFDVCESVDEA, the protein stability index (parent: IOH23244_56, c terminus: a fixed tail appended) came to 3.72.
On to CPIIRIPNRFLRGHRPPPARSGHR, for which, where the note is “parent: IOH26494_13, c terminus: a fixed tail appended”, the protein stability index was determined as 1.87.
Regarding WTMQAYERNFWDPSPQLDTQQEIK, for the setting “parent: IOH25728_43, c terminus: a fixed tail appended”, the protein stability index was 2.62.
With PDVENEVKRLLRSDAEAVSTRWEV [TAF7L WT], the protein stability index (parent: IOH26414_44, c terminus: a fixed tail appended) stood at 3.49.
Take KSAAMLAVFAVSAVVHEYALAVCL [SOAT1 WT]: the protein stability index (parent: IOH22371_75, c terminus: a fixed tail appended) turned out to be 3.11.
As for FGGTGIPFGESNGNGVHVCNVKYK, the protein stability index (parent: IOH26494_29, c terminus: a fixed tail appended) turned out to be 2.05.
Turning to HVGELIIWDALDWTMQAYERNFWD, the protein stability index (parent: IOH25728_41, c terminus: a fixed tail appended) came out at 2.32.
FASDGDSGTCSPLRHSFQKQQREK: the protein stability index (parent: IOH25868_71, c terminus: a fixed tail appended) turned out to be 3.71.
LLARLRELEQQIWKERDEYITKVS: the protein stability index (parent: IOH26053_32, c terminus: a fixed tail appended) was found to be 1.67.
DSCCPAGIFQAMCLLICAEMYQVS: under “parent: IOH25836_81, c terminus: a fixed tail appended”, the protein stability index came to 3.09.
As for GGADIIVIKYNVNDKFSFHEVKDN, the protein stability index (parent: IOH25836_16, c terminus: a fixed tail appended) is 2.19.
As for DWRKNIEEKSGMEGRKKMFESES [TNNI2 WT], the protein stability index (parent: IOH23107_29, c terminus: native) was determined as 2.45.
As for PLMGETQERERVLTHFSRRYCQCN, where the note is “parent: IOH26041_63, c terminus: a fixed tail appended”, the protein stability index turned out to be 3.06.

For the origin of these results see the supplement of paper PMC10567573.
